Results taken from a protein production outcome set (Wang et al. 2014).

Experiment: label from the status in PepcDB records

**Q.** For “MHHWVQASSSDFSGTPPQARSGHTAVNVGKSMVVVFGGLVDKKFLSDIIVYDIENKLWFEPECTGSESEGQVGPTPRAFHVAITIDCHMFIFGGRSGGKRLGDFWVLDTDIWQWSELTSFGDLPTPRDFAAAAAIGSQKIVLCGGWDGKKWLSDVYVMDTMSLEWLELSVSGSLPPPRCGHTATMVEKRLLVFGGRGGGGPIMGDLWALKGLIDEERETPGWTQLKLPGQAPSSRCGHTVTSGGHYLLLFGGHGTGGWLSRYDVYYNDTIILDRVTAQWKRLPIGNEPPPPRAYHTMTCIGARHLLIGGFDGKLTFGDLWWLVPEDDPIAKRSSVPQVVNPPEIKESERELDKERGQDGFSIVDLQQKMGISVSSGLRLQIPEESEDQEFVELGTRLIEGDVVDERASMIQMAAQALRQHWKQSTPRTLQLKELGSLLRDYQRLVTRIFTTQSSLTSADFGLPGTKTFTFYHIKSSSELRINDISKLLEEYKTLVI”, which protein production is on record?
**A.** not failed

**Q.** For “MQSSSSLAPVAPIIFLAIAIAAINWIDLARGKNRTSVAYPLSLLTTLVLTAWFGIDAAGGETHYAFANLVVIDPMANVLAAFCSLGMLLTLIYTRSYLAERDMFAGEFYMLALFTLGGQIVMITGNNFLTLYLGLELLSLSSYALVALRRDSRVTSESAIKYFVLGALASGFLLYGMSMMYGATGSLNLGEVFRVVESGRVNTTMLAFGVVFIVAGVAFKLGAAPFHMWIPDIYQGSPTAVTLLIAAGPKVAAFALIIRLLVEGLLPLATDWQVMLVILSIASLVIGNLTAIVQTNLKRMLAYSTISHMGFVLLGMLSGVVANKADGAVNAYSSSMFYSITYMLTTLGTFGLILVRTRKGFEAETLDDLKGMSRRHPWFAFLMLVMMFSMAGIPPTVGFYAKLSVLQAVVSAGMSWLAVLAVVFSLIGAFYYLRIVKLMYFDAPVGEEPLEASTGLRSVLSLNGLAVILLGLFPAGLMDLCFQAIRATLAS”, which protein production is on record?
**A.** failed

**Q.** Which protein production does the source give for “MQGISASPERMNAQQRAAHVRQVVLARGDELRRRFPLLRHQDALGAGILAFALSGMLGSALLYVTGHLAWWACLLLNAFFASLTHELEHDLIHSMYFRKQRLPHNLMLGLVWLARPSTINPWVRRHLHLNHHKVSGSESDIEERAITNGEPWGIARLLMVGDNMMAAFIRLLRAPGARRKLGILVRTLAVYAPLALLHWGAWYVFLGFHGANGVAALLGSPIQWSQDTASLMHYVDIAVVVIIGPNVLRTFCLHFVSSNMHYYGDIEPGNVIQQTQVLNPWWMWPLQAFCCNFGSTHGIHHFVVREPFYIRQMTASVAHKVMAEMGVRFNDFGTFARANRFTRQEREAMQPAHNARA” here?
**A.** failed

**Q.** With “MPITVHAYTSLDNEEIRTQLERLYDTSPEFGDGQDAIEQLEQNLAQYTTVYTAEFNTKIIGAIWCTGQGESKILEYIVVHPANRGRGIAERLVSEVCRMEEAKGVTMFEPGCGAIHRCLAHIGKLSV” as the sequence, how does the protein production read?
**A.** failed

**Q.** Which protein production does the source give for “IKMAKDYGFCFGVKRAIQIAEKNQNSLIFGSLIHNAKEINRLEKNFNVKIEEDPKKIPKNKSVIIRTHGIPKQDLEYLKNKGVKITDATCPYVIKPQQIVESMSKEGYQIVLFGDINHPEVKGVISYATNQALVVNSLEELQEKKLQRKVALVSQTTKQTPKLLQIASYLVERCTEVRIFNTICNATSYNQKAALDLSKEVDIMIVVGGKTSSNTKQLLSIAKQHCKDSYLVEDENELELAWFKDKKLCGITAGASTPDWIIENVKQKISTI” here?
**A.** failed

**Q.** For “MTNQSHDDDDDDEQLPRSLFRLVSLPQKTMTNQTHDDDDDDEQLPLSLTLGSTSYSSQIRPVKSPVPIAPPPEFPGPVTTWPTPADFLATRSMVPDPPPPSHQIPLWMSNYFQQTPNPPQLVTHFFPPSGLAPPSSNLTPPPVKRPVTGSVRIYRSRSTVSKKSDTISPPFPWATNRRGEIQSLEYLESNQITTITGEVQCRHCEKVYQVSYNLRERFAEVVKFYLTEKRKMRDRAHKDWAYPEQRRCELCGREKAVKPVIAERKSQINWLFLLLGQTLGFCTLEQLKNFCKHSKNHRTGAKDRVLYLTYMGLCKMLQPKSDLFTCVAGKR”, which protein production is on record?
**A.** failed

**Q.** With “MNIRMGTKGKRPLRSLTPRDKIHAIQRIHDGESKASVARDIGVPESTLRGWCKNEDKLRFMSRQSATDNLCADALGDKMDGGGGGGGGAGGGGLLGPPEKRQRLDGALPLNFSNKLKFDELAFKRSPLNGLDYSTNKNLADLGYNGLPVDYAAFNGGVKAKVFGADINRPAADPSLNAISPLSSLTHLSGLTGISQSPLAISFNELTTNLNLLAQLNPGLAAMSGLNSF” as the sequence, how does the protein production read?
**A.** not failed

**Q.** For “MTTKNMNTPPGSTQENEIDLLRLVGELWDHRKFIISVTALFTLIAVAYSLLSTPIYQADTLVQVEQKQGNAILSGLSDMIPNSSPESAPEIQLLQSRMILGKTIAELNLRDIVEQKYFPIVGRGWARLTKEKPGELAISWMHIPQLNGQDQQLTLTVGENGHYTLEGEEFTVNGMVGQRLEKDGVALTIADIKAKPGTQFVLSQRTELEAINALQETFTVSERSKESGMLELTMTGDDPQLITRILNSIANNYLQQNIARQAAQDSQSLEFLQRQLPEVRSELDQAEEKLNVYRQQRDSVDLNLEAKAVLEQIVNVDNQLNELTFREAEISQLYKKDHPTYRALLEKRQTLEQERKRLNKRVSAMPSTQQEVLRLSRDVEAGRAVYLQLLNRQQELSISKSSAIGNVRIIDPAVTQPQPVKPKKALNVVLGFILGLFISVGAVLARAMLRRGVEAPEQLEEHGISVYATIPMSEWLDKRTRLRKKNLFSNQQRHRTKNIPFLAVDNPADSAVEAVRALRTSLHFAMMETENNILMITGATPDSGKTFVSSTLAAVIAQSDQKVLFIDADLRRGYSHNLFTVSNEHGLSEYLAGKDELNKVIQHFGKGGFDVITRGQVPPNPSELLMRDRMRQLLEWANDHYDLVIVDTPPMLAVSDAAVVGRSVGTSLLVARFGLNTAKEVSLSMQRLEQAGVNIKGAILNGVIKRASTAYSYGYNYYGYSYSEKE”, which protein production is on record?
**A.** failed

**Q.** Which protein production does the source give for “MNAYYIQDRLEAQSWARHYQQIAREEKEAELADDMEKGLPQHLFESLCIDHLQRHGASKKAITRAFDDDVEFQERMAEHIRYIVETIAHHQADIDSEV” here?
**A.** failed

**Q.** With “MSLRAKLIWPILVFITAIFVASKGYTSYTAYQSSKHELVEQTRKLINNVSYSIKDALTTKNKRKAQTILADLIEQPNVSRVKLYDRANELFVLLEGSGESAPVPNQNERSKLDALGYALSAKFLYVLEPIIHEGHVIGSIRVTLSYIPIINAQHSFLKDAGVLLLILAAGGIIFYITIDRIILRPLLDLNGAIQDVTFGNASHVQIRHHSKDELGEVIHAFNRMMTKLRKREKQRQHSLATLEQKRAFSEEVIESIQYALVITDNLGTIIHSNAATQHIFQKTPEALENANIRDLIKTKMPNELSQILSRCLECDDIHLQNIDNEQQLSLTTRRLSNHGYLLFAIQDITEIEEAMNRQRVAGRVFEASQDGLIVLNHKGVITMVNPAVTKLVGLEIDQLVGQSFIQTIRWRKLQEMMPSIIESIENYGVWQGEVIEQNHLGLLVPMFARVNRIVKCENNGFYDLVIILTDLSNAKEMERLEYLAHHDALTGLANRSKFHLELEDLVQRSGYQRDEFAVLYLDLDGFKEINDTYGHDAGDEVLKRVADRLTSATRHSDLIARLSGDEFVMLVNPANQKVVTRIAEQLLESICAPIEYKGNELKVGVSIGVKLVGVNERDATRILKSADTAMYQAKKAGKGQAILMGCELQETV” as the sequence, how does the protein production read?
**A.** failed

**Q.** Which protein production does the source give for “MIYFIRKKKWLKQLEKGEAMKYAILIGDGMADYPIEKLGNRTILQAARTPAMDSIAARGRAGLAKTVPDSFPPGSDVANMSILGYDPATYYSGRAPLEAASMGVALAADDVAFRCNLITTEHGMIKDYSAGHISSDEAEILIDTLDYELSTENIRFYPGISYRHLIVAGNNLGAETECTPPHDITGEKIDKYLPRGKDGEFFSELIEASKVVLELHPVNLKRVEEGKNPANSIWVWGQGYAPKFTAFMKLYGKKGAVISAVDLLKGIGIYAGLDVIEVHGATGYLDTNYEGKVRAAIEALKTRDLVFVHVEAPDEAGHEGSIEKKLKAVEDFDSRIVAPILEYAENSDEPFTILVLPDHPTPISVKTHTRDPIPFAIYRTDKPETDNVEAFDEESVKNGSMGLVKASDLIGILIKSLEHHHHHH” here?
**A.** not failed

**Q.** Which protein production does the source give for “MQGNLTALLITAIIVLTVVCIGFLAGRDKSSRTSVEEWSVGGRRFGGLLVWFLVGADLYTAYTFLGLTSTAFTGGSVAFFAIPYSVLAYFIAYFFLPKLWKVAKIHKLTTLADYARERFNSKLLASLVAIVGVLMLIPYICLQLSGIQDTLQVAGTGYINVKFVVIISFILVALYTFFSGIKGPTYTAIIKDILVWVIMLFMVVSLPLIHFNGWTPMIDTLVKEAPQMLTIPSEGPKGIPWFITASIVSALALFMWAHAATGVFTAKSADAVRKNSMFLPLYNIVLILVIFLGFIAFLVLPEDTNPRLALLHLIQTSYGGVAQGFAYATIALASLIPCSIMAIGASNLFANNLYRDLIHPNVSQSKLTLVTRSMVFVVIGLALLFGMLFPTALVTLQLLGVSGMVQIFPAIAVSLFWKNQTKEATVIGLLAGLAVTFIVYITQSAHGIYEGFWGLAANMIAVVILNPLFVKNAGSNPVIEGLFGKKQDANPNQKGA” here?
**A.** failed

**Q.** Which protein production does the source give for “MAEKRTVRPFAGTERRAKGWIQEAALRMLNNNLHPDVAERPDELIVYGGIGKAARNWECYEAIVDTLLRLENDETLLIQSGKPVAVFRTHPDAPRVLIANSNLVPAWATWDHFHELDKKGLIMYGQMTAGSWIYIGSQGIVQGTYETFAEVARQHFGGTLAGTITLTAGLGGMGGAQPLAVTMNGGVCLAIEVDPARIQRRIDTNYLDTMTDSLDAALEMAKQAKEEKKALSIGLVGNAAEVLPRLVETGFVPDVLTDQTSAHDPLNGYIPAGLTLDEAAELRARDPKQYIARAKQSIAAHVRAMLAMQKQGAVTFDYGNNIRQVAKDEGVDDAFSFPGFVPAYIRPLFCEGKGPFRWVALSGDPEDIYKTDEVILREFSDNERLCHWIRMAQKRIKFQGLPARICWLGYGERAKFGKIINDMVAKGELKAPIVIGRDHLDSGSVASPNRETEGMKDGSDAIADWPILNALLNAVGGASWVSVHHGGGVGMGYSIHAGMVIVADGTKEAEKRLERVLTTDPGLGVIRHADAGYELAIRTAKEKGIDMPMLK” here?
**A.** not failed

**Q.** Which protein production does the source give for “MASQIDQYAVFGNPINHSKSPFIHTLFARQTQQSMIYTAQCVPVDGFTEAAKHFFAQGGRGCNVTVPFKEEAYRFADRLTERARLAGAVNTLKKLDDGEILGDNTDGEGLVQDLLAQQVLLKGATILLIGAGGAARGVLKPLLDQQPASITVTNRTFAKAEQLAELVAAYGEVKAQAFEQLKQSYDVIINSTSASLDGELPAIDPVIFSSRSVCYDMMYGKGYTVFNQWARQHGCAQAIDGLGMLVGQAAESFMLWRGLRPGTKQILRELRKNLEGAL” here?
**A.** not failed

**Q.** With “MKNVLLLGESGFVGSVVYNSLHCVCKVYTIAPNKKITIDNVFEVANDVFKSIEINNIDVVINCIAMANLDQCENNKLDCELVNTTFVTHIVDYLKDKDIKLVHISSNAVYDGLNAPYSENSLREPINYYGICKSNADYYIESNLNNYAIARPITVYGPRKIEQRDNPVSFIVKKILSGESFDLVDDNIVNMIHVEDLSNAIKKLSLSDLKGVYNLSGDVSECRYDLGIRIAKIMGSDLNKINKVSGSNFKMAAKRPYNTSFDNKKMKSVLNIEPKNIDIAISEILNAKAY” as the sequence, how does the protein production read?
**A.** failed

**Q.** Which protein production does the source give for “MHNSIMNKVAVIGLGNIATRHRRNLKSLFPNVELLVMSASGRIPTEEISDSDGIVTSIEALIEANVELVIVASPAPFHAQHSIPLIEAGIPTLIEKPVTTTREDANAIKKALNEHGTPVAIGYCLRYLPSAQKLKILLDHKAIGTLYNAHIEIGQYLPDWRPSKNYRECVSANEKLGGGALFELSHELDYAQWLLGPLALQHAILRSSDELDLQVEDMADILTLTESGAVASIHLDFLQRKAHRQCSFIGSEGRIDWDLIQNQLTLTTAAEAKVIYSEPEWDKNQMYLAMVTDFIQMIKQQPHNCIAVTDASFTVDLISQIKQKAY” here?
**A.** failed
